Assay results published in ChEMBL document CHEMBL6074635, “Replacement of the essential nitro group by electrophilic warheads towards nitro-free antimycobacterial benzothiazinones” (Eur J Med Chem, 2024).

What was measured:
[1] = substrate: CC(C)=CCC/C(C)=C/CC/C(C)=C/CC/C(C)=C/COP(=O)(O)OC1O[C@H](CO)[C@@H](O)[C@H]1O; assay: (§1) Substrate activity at recombinant Mycobacterium tuberculosis DprE1 extracted from Escherichia coli BL21(DE3) assessed as Km incubated for 60 mins by resazurin dye based fluorescence plate reader analysis
[2] = substrate: CC(C)=CCC/C(C)=C/CC/C(C)=C/COP(=O)(O)O[C@@H]1O[C@H](CO)[C@@H](O)[C@H]1O; assay: as §1

B1: Decaprenylphosphoryl-beta-D-ribose oxidase (Mycobacterium tuberculosis (strain ATCC 25618 / H37Rv)), P9WJF1 (protein)
chain: MLSVGATTTATRLTGWGRTAPSVANVLRTPDAEMIVKAVARVAESGGGRGAIARGLGRSYGDNAQNGGGLVIDMTPLNTIHSIDADTKLVDIDAGVNLDQLMKAALPFGLWVPVLPGTRQVTVGGAIACDIHGKNHHSAGSFGNHVRSMDLLTADGEIRHLTPTGEDAELFWATVGGNGLTGIIMRATIEMTPTSTAYFIADGDVTASLDETIALHSDGSEARYTYSSAWFDAISAPPKLGRAAVSRGRLATVEQLPAKLRSEPLKFDAPQLLTLPDVFPNGLANKYTFGPIGELWYRKSGTYRGKVQNLTQFYHPLDMFGEWNRAYGPAGFLQYQFVIPTEAVDEFKKIIGVIQASGHYSFLNVFKLFGPRNQAPLSFPIPGWNICVDFPIKDGLGKFVSELDRRVLEFGGRLYTAKDSRTTAETFHAMYPRVDEWISVRRKVDPLRVFASDMARRLELL
For B1, the Km [1] was 33 µM and the Km [2] was 740 µM.
